Assay results published in the RNAGym collection of RNA variant scans (doi:10.1073/pnas.2313332121).
Variants at the floor of the assay were thinned out.

B1: TPR 5TU (parent)
chain: GGAUCUUCUCGAUCUAACAAAAAAGACAAAUCUGCCACAAAGCUUGAGAGCAUCUUCGGAUGCAGAGGCGGCAGCCUUCGGUGGCGCGAUAGCGCCAACGUUCUCAACUAUGACACGCAAAACGCGUGCUCCGUUGAAUGGAGUUUAUCAUG

Variants of: B1
Assay: polymerase ribozyme fitness, log enrichment relative to wild type (log ratio); higher = more active; in vitro selection for triplet polymerase activity
Procedure, shortened: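 Genotype fitness is the logarithm of its enrichment divided by wild-type enrichment, using inverse-variance-weighted averages of replicates. That logarithm is base 2. Enrichment was measured by Illumina sequencing of input and output libraries from one triplicate in vitro selection round, with frozen incubation at −7 °C, on PCR-built, transcribed mutant libraries of each subunit of a heterodimeric triplet polymerase ribozyme, retaining genotypes with ≥10 input reads and ≥1 read per output.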

Variant	polymerase ribozyme fitness (log ratio)
U6A C79A C99U A107G	≤ -4.2
U6A A22C A39U U44A G70A C99A	≤ -4.2
U6C A21U C85U	-0.501
U6C C38U A121U U127A G128U	-4.07
U6G A12U A22C G59C U61G A73U	≤ -4.2
C5U U6A C57U G67C G71A U82G C87G U104A U139G A142G	≤ -4.2
U6G A73C	-2.87
U6G A73G	-0.521
U6G A21U U45C A66U G141A U151A	≤ -4.2
U6G C10G G68A C69U G84A	≤ -4.2
C5U C14U A23C U90C C96A C103G G124U	≤ -4.2
U7A A29C A41U G94C	≤ -4.2
U6C C32U C54A	-4
U6C C10G A28U C57U C63U U77A C85U G86U U144C	≤ -4.2
U6C A49C C99A U146C	≤ -4.2
U6A A22U	0.00924
U6A A12G A16U C43U G83A	≤ -4.2
U7A A17U A24G U56A C93U U134A	≤ -4.2
U6G A16G C85U C125A	-1.05
U6G U146A	-1.17
U6G G46U G88C U134A A138G	≤ -4.2

Variant	polymerase ribozyme fitness (log ratio)
U6G C38A A41C C95U U104C G126U	-2.03
U6A C75U C93G C131G	≤ -4.2
U6A A24C A40U A52U C57A A98U A115C	≤ -4.2
C5U G143C	-1.95
C5U U31C A37U C76G U109C U135C	≤ -4.2
U7A A22U U44A C51U G67A G94C C99U G141C	≤ -4.2
C5U U6C C10U G83C	-2.89
U6A A26U U53G C103A U109C	≤ -4.2
U6A C57U A98G	-0.654
U6A C35U C95G G100A	≤ -4.2
U6G A16G A24C U145C	≤ -4.2
U6A G81C G94U A113U C114U U151C	≤ -4.2
U6C C27G C32A U53A A142U C149G	≤ -4.2
U6C A40C G50U A97U U104A G124C U130A	≤ -4.2
U6A C10A C27G G46C C69A C93U G94C A97C	≤ -4.2
U6C C14A A49U G50U A52G C93G C99G	≤ -4.2
C5U A41U G50A	-2.81
U6A A12U G50A C149A	≤ -4.2
U6A U139C	-3.88
U6A A115U G141U	-1.01
U6G A26U A52G G141U U145G	≤ -4.2

Variant	polymerase ribozyme fitness (log ratio)
U6G A23C G88C A97U	≤ -4.2
U6G A39G A49C	≤ -4.2
U6G A16U C38U G83C U139A G141A	≤ -4.2
C5U C63G A73G G81C C105U A115C A138C	≤ -4.2
U6G A98U	-0.985
U6G A142U	-0.0461
U6G A12U	-0.722
U6A A20G U45A	-3.51
U6A A26G A64C C87U A89C U146C	≤ -4.2
U6G C96A A122U	-0.578
U6G A22U C87U	0.101
C5U C51A G117C	-2.16
U6G C38U C43U A91U C95G U102G	≤ -4.2
U6C A26G A29U A73G C96A U104G	-3.88
C5U C14U C38A C57A A66U G67A G84U A110G	≤ -4.2
U6G U33A G42U C57U A64C C85G A107G G117C	≤ -4.2
U6C A26U C35A A73G C75U C93A C116A A138C	≤ -4.2
C5U C75U C85U	1.35
U6A A12U U15C A137C	-3.12
U6G C76U C93G	-2.95
U6C G74U U102A C123A	≤ -4.2

Variant	polymerase ribozyme fitness (log ratio)
U6A C10G C75G U78C C96G A97G U102G	≤ -4.2
C5U G81U C87A A107G U144G	≤ -4.2
U6A A142C	-0.741
U6G A19G U44A U82C C95U U139G	≤ -4.2
U6A U9G C14G G83C G112U G136C	≤ -4.2
U6A U9A G92C C114A C118U C123G	≤ -4.2
U6G A52C U55C G71A G86C A119U	≤ -4.2
U6G G50U G83C A120U	-0.29
U6A C69U	-1.1
C5U U45A	-2.1
U6G C14A C79A U145C	≤ -4.2
U6A C54U C85G A115C	-2.97
U6A C57U A60U C99U U111G G126U C129G	≤ -4.2
U6G U15A A20G C87U	-0.616
U6G G62C U82G	-0.631
U7A A16U G58C G71C C93U A115C U134C	≤ -4.2
U6A A21U U55A	-0.47
U6G C54A C75G C85A C105U A106U U111A G136U	≤ -4.2
U6G A52C C96G A115G	-3.74
U6A A23U G83A C105U C108A	≤ -4.2
U6G G92U C105A C114G A142U	≤ -4.2
